Measured values: publication PMC9518701 (2022)
Positions count from the first letter of the chain named. Names and notes keep the numbering of the source.

B1: romlusevimab (BRII-198) (antibody)
chain 1: QVQLVQSGSELKKPGASVKVSCKASGYTFTTYVMNWVRQAPGQGLEWMGWINTNTGNPTYAQGFTGRFVFSLDTSVSTASLQISSLKAEDTAVYYCSSEITTLGGMDVWGQGTTVTVSS
chain 2: SYVLTQPPSVSVAPGKTARITCGGNNIGSKSVHWYQQKPGQAPVLVIYYDSDRPSGIPERFSGSNSGNTATLTISGVEAGDEADYYCQVWDSISDHRVFGGGTKLTVL
B2: P2B-1G5 (precursor of romlusevimab) (antibody)
chain 1: B1 chain 1 with S98C
chain 2: B1 chain 2
modifications: soluble extracellular FCGRT with beta-2-microglobulin assumed by convention (subunits and limits not given); assayed at pH 6.0

Tests used:
[1] = target: SARS-CoV-2 spike protein receptor binding domain (RBD) (SARS-CoV-2, UniProt P0DTC2 319-541)
[2] = target: human neonatal Fc receptor (FcRn) (human, UniProt P55899 24-365); test: SPR; pH 6.0
human neonatal Fc receptor (FcRn), sequence (P55899 24-297, chain 1 of 2): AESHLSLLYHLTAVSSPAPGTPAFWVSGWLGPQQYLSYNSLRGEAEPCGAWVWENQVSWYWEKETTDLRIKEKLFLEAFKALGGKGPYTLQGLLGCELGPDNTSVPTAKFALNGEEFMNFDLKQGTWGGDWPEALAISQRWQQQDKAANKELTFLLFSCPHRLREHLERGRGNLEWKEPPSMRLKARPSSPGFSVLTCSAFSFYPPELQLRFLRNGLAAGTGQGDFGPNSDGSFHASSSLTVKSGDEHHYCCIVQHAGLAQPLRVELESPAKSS
human neonatal Fc receptor (FcRn), sequence (chain, as listed by the source, chain 2 of 2): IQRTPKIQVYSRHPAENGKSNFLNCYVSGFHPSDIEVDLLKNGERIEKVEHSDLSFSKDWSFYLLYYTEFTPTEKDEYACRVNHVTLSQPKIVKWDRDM

Binder | IC50 [1] [nM] | Kd [2] [nM]
B1 | > 200 | 
B2 |  | 2.51
